We go through one substance from patent US20060210973A1.

The target of the assay is HA-TrioGEFD2 (pMTHA-TrioGEFD2) (UniProt O75962). Briefly: cell-based or functional assay.

The substance GFP alone displayed a percentage of co-transfected PC12 cells with neurites after NGF of 16%.
